Data on two molecules can be found in patent US20090011974A1, “Scavenger Receptor B1 (Cla-1) Targeting for the Treatment of Infection, Sepsis and Inflammation” (priority 2002, published 2009).

“And” between values parts separate entries of the source, which are not always exact repeats. Equal values may be shown once. “Also recorded” adds a separate entry of the source. Where a SMILES comes first, the peptide text is derived from it.

The test system of one data set is THP-1 cells. Conditions: 20 μg/ml. As to the method:
Assays for cytokines and lactate dehydrogenase (LD). Interleukins 6 and 8 (IL-6 and IL-8) and tumor-necrosis factor-α (TNF-α) are measured in culture supernatants of THP-1 cells using commercial ELISA kits (Biosource International, USA). LD activity was measured in the supernatants by a Hitachi 917 automated chemistry analyzer (Roche).

Data set [1] has as its target T1, CLA-1 (Homo sapiens, UniProt Q8WTV0).
T1 construct: using the expression plasmid pTRE2 (Clontech, Pal Alto, Calif.), encoding a CLA-1 protein (pTRE2-CLA-1); expressed in transfected cells; host or cells: HeLa (Tet-off) cells (Clontech), stably co-transfected with pTRE2-CLA-1 and pTK-Hyg and selected with hygromycin
T1 sequence (Q8WTV0 1-509 isoform Q8WTV0-2): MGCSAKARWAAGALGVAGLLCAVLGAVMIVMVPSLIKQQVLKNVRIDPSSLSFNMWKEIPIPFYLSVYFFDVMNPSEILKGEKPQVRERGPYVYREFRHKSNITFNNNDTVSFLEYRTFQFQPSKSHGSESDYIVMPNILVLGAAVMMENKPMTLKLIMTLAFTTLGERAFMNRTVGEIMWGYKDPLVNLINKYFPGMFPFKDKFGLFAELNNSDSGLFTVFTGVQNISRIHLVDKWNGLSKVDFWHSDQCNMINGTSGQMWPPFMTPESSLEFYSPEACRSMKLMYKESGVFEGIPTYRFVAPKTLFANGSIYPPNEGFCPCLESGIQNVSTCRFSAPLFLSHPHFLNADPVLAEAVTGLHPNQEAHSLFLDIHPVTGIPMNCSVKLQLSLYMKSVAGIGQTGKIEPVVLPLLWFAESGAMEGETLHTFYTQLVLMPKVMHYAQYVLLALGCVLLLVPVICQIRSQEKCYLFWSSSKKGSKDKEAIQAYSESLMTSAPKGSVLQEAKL
Kind of data set: Competition for Alexa 488-SAA uptake in CLA-1 overexpressing and mock transfected HeLa cells (FACS). Type of data set: binding. Conditions: mock transfected and CLA-1 overexpressing HeLa cells. The method, then: Competition experiments. Cells are cultured for 24 hr in serum free DMEM before experiments. […] For KKB-1 anti-CLA-1 blocking experiments, cells are pre-incubated with KKB-1 rabbit anti-serum (non-immune rabbit serum as a negative control) at a dilution of 1:10 followed by ligand addition to a final concentration of 5 μg/ml and a 1-hour incubation. Cell fluorescence was analyzed by FACS analyses.

Data set [2] addresses T2, CLA-1 (CD36 and LIMPII Analogous-1), human scavenger receptor class B type I (human, UniProt Q8WTV0 1-552).
T2 construct: whole, on cells; Target is CLA-1 on stably transfected HeLa cells, compared with mock-transfected HeLa cells, which carry a low endogenous level of CLA-1; also called SR-BI/CLA-1; human SR-BI
T2 sequence (looked up): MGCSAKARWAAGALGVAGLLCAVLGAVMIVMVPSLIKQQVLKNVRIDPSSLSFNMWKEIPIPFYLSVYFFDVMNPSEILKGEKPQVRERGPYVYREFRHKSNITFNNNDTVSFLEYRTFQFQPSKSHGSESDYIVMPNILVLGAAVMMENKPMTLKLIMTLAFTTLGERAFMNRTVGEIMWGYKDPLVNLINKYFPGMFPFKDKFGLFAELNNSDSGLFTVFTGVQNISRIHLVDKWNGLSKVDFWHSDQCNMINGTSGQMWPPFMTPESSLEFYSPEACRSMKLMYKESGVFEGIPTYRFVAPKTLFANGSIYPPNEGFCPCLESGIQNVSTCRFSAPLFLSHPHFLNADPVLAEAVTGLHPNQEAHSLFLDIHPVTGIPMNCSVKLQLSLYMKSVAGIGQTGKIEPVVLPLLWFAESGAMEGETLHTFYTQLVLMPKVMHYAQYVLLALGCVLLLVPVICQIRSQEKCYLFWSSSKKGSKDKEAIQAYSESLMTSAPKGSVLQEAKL
Kind of data set: flow cytometry of Alexa-488 SAA uptake. A general note: Flow cytometry measures light scatter and fluorescence of single cells or particles in a stream.

Data set [3] concerns the target T1, CLA-1. Put plainly: FACS analysis of Alexa 488-SAA and Alexa 488-HDL uptake in HeLa cells. Type of data set: cell-based. Conditions: CLA-1 overexpressing HeLa cells. As to the method:
Ligand-uptake experiments. Binding experiments are performed at 37° C. using concentrations between 1.25 and 30 μg/ml. All incubations are performed in DMEM containing 2 mg/ml BSA. After a 2-hr-incubation […], the cells are rinsed with ice-cold PBS and released by a 30-min incubation in EDTA containing Cell stripper (CellGro, USA). Cells are resuspended and added to an equal volume of 4% paraformaldehyde in PBS. Cell fluorescence is analyzed by FACS analyses.

For `CC(C)C[C@H](NC(=O)[C@H](Cc1c[nH]c2ccccc12)NC(=O)[C@H](CC(=O)O)NC(=O)[C@@H]1CCCN1C(=O)[C@H](Cc1ccccc1)NC(=O)[C@H](C)NC(=O)[C@H](CCC(=O)O)NC(=O)[C@H](CCCCN)NC(=O)[C@H](CC(C)C)NC(=O)[C@H](CCCCN)NC(=O)[C@H](CCC(=O)O)NC(=O)[C@H](C)NC(=O)[C@@H](NC(=O)[C@H](CCCCN)NC(=O)[C@H](CC(=O)O)NC(=O)[C@H](Cc1ccc(O)cc1)NC(=O)[C@H](Cc1ccccc1)NC(=O)[C@H](C)NC(=O)[C@H](CCCCN)NC(=O)[C@H](CC(C)C)NC(=O)[C@H](Cc1c[nH]c2ccccc12)NC(=O)[C@@H](N)CC(=O)O)C(C)C)C(=O)N[C@@H](CCCCN)C(=O)N[C@@H](C)C(=O)N[C@@H](Cc1ccccc1)C(=O)N[C@@H](Cc1ccc(O)cc1)C(=O)N[C@@H](CC(=O)O)C(=O)N[C@@H](CCCCN)C(=O)N[C@H](C(=O)N[C@@H](C)C(=O)N[C@@H](CCC(=O)O)C(=O)N[C@@H](CCCCN)C(=O)N[C@@H](CC(C)C)C(=O)N[C@@H](CCCCN)C(=O)N[C@@H](CCC(=O)O)C(=O)N[C@@H](C)C(=O)N[C@@H](Cc1ccccc1)C(=O)O)C(C)C` [Peptide L-37PA] (H-DWLKAFYDKVAEKLKEAFPDWLKAFYDKVAEKLKEAF-OH; N-terminus and C-terminus assumed), the “toxic effect (LDH release, β-actin expression)” value with THP-1 cells is recorded as “no apparent toxic effect”.

B1: Serum Amyloid A1 (StressGene) (ligand, UniProt P0DJI8 19-122, looked up)
chain: RSFFSFLGEAFDGARDMWRAYSDMREANYIGSDKYFHARGNYDAAKRGPGGAWAAEVITDARENIQRFFGHGAEDSLADQAANEWGRSGKDPNHFRPAGLPEKY
notes: also called SAA; lipid-free SAA
On to B1, for which the “competition with Alexa 488-SAA for CLA-1” value with CLA-1 [1] is recorded as “efficient competitor; also recorded: competed for CLA-1 binding with Alexa 488-SAA”. The “fold increase of uptake over mock transfected HeLa cells” value in data set [2] was greater than 5 fold. Also, in the data set with CLA-1 [3], the “concentration at which SAA uptake plateaus” value was 2.5 µg/mL and 2.5 to 5 µg/mL.
